Data reported in US20210163947.

System: pdt-tagged sfGFP

mf-Lon
signal decay of pdt-tagged sfGFP (protein degradation) on mixing extracts: Increasing the concentration of mf-Lon and supplying additional ATP (a co-substrate for the reaction) results in some signal decay
